Read-outs that look alike come from different tables or passages of the source.
Assays:
[1] = target: the molecule itself; assay: SEC
[2] = target: T1, TDP-43 RRM2 (mouse, UniProt Q921F2 192-265); assay: filter binding
[3] = target: T2, TDP-43 RRM1 (mouse, UniProt Q921F2 101-191); assay: filter binding
[4] = target: T3, TDP-43s (RRM1-RRM2) (mouse, UniProt Q921F2 101-265); assay: filter binding
[5] = target: the molecule itself; assay: SEC; remark: listed apart in the source
[6] = target: T3, TDP-43s (RRM1-RRM2); assay: filter binding; remark: listed apart in the source
[7] = target: T1, TDP-43 RRM2; assay: filter binding; remark: listed apart in the source
[8] = target: T2, TDP-43 RRM1; assay: filter binding; remark: listed apart in the source
[9] = target: T1, TDP-43 RRM2; assay: crystal structure

B1: RRM1 (first RRM domain of mouse TDP-43) (domain or fragment, UniProt Q921F2 101-191, looked up)
chain: QKTSDLIVLGLPWKTTEQDLKDYFSTFGEVLMVQVKKDLKTGHSKGFGFVRFTEYETQVKVMSQRHMIDGRWCDCKLPNSKQSPDEPLRSR
[1]
  stoichiometry N: 4

B2: (UG)6 (ssRNA)
RNA: UGUGUGUGUGUG
[2]
  Kd: 4.24 µM
[3]
  Kd: 0.0652 µM
[4]
  Kd: 0.0142 ± 0.0014 µM

B3: RRM2 (second RRM domain of mouse TDP-43) (domain or fragment)
chain: MRGSHHHHHHGSKVFVGRCTEDMTAEELQQFFCQYGEVVDVFIPKPFRAFAFVTFADDKVAQSLCGEDLIIKGISVHISNAEPKHNKLN
[5]
  stoichiometry N: 2
[1]
  stoichiometry N: 4

B4: TDP-43s (truncated mouse TAR DNA-binding protein 43 covering both RRM domains) (domain or fragment)
chain: MRGSHHHHHHGSQKTSDLIVLGLPWKTTEQDLKDYFSTFGEVLMVQVKKDLKTGHSKGFGFVRFTEYETQVKVMSQRHMIDGRWCDCKLPNSKQSPDEPLRSRKVFVGRCTEDMTAEELQQFFCQYGEVVDVFIPKPFRAFAFVTFADDKVAQSLCGEDLIIKGISVHISNAEPKHNKLN
[1]
  stoichiometry N: 2

B5: (UG)4 (ssRNA)
RNA: UGUGUGUG
[6]
  Kd: 0.115 µM

B6: (UG)8 (ssRNA)
RNA: UGUGUGUGUGUGUGUG
[6]
  Kd: 0.00279 µM

B7: (UG)3 (ssRNA)
RNA: UGUGUG
[7]
  Kd: 0.379 µM
[8]
  Kd: 4.69 µM
[6]
  Kd: 3.06 µM

B8: 10-mer crystal ssDNA (ssDNA)
DNA: GTTGAGCGTT
[9]
  binding result: binds
